{"source": "patent US20180187185", "test_in_all_cases": "cell_activity", "key": {"[1]": {"tested_on": "Bmpr2 FWD RTN (Ralstonia TALE 16 EBEs in Xanthomonas TAL backbone-FokI) (Ralstonia (TALE repeats); Xanthomonas backbone)", "conditions": "RTN pair p1+p2, Rat C6, Surveyor 250 bp band; 5.43% by 150 bp band"}, "[2]": {"tested_on": "Bmpr2 REV RTN (Ralstonia TALE 16 EBEs in Xanthomonas TAL backbone-FokI) (Ralstonia (TALE repeats); Xanthomonas backbone)", "conditions": "RTN pair p1+p2, Rat C6, Surveyor 250 bp band; 5.43% by 150 bp band; printed SEQ 150 differs from SEQ 148 complement at position 5"}, "[3]": {"tested_on": "Bmpr2 XTN (Xanthomonas TALEN-FokI pair) (Xanthomonas)", "conditions": "TALEN pair, Rat C6, Surveyor 250 bp band; 3.66% by 150 bp band; XTN RVDs and half-sites not stated"}, "[4]": {"tested_on": "AAVS1 TALE-Clo051 (Clo051-XTN) (Xanthomonas TALE)", "conditions": "average of replicates; locus inferred AAVS1; sequencing gave 9.3% indels (FIG. 11)"}, "[5]": {"tested_on": "AAVS1 TALE-FokI (FokI-XTN) (Xanthomonas TALE)", "conditions": "average of replicates; locus inferred AAVS1; sequencing gave 6.5% indels (FIG. 12)"}}, "data": [{"substance": "TTGATAGTCGCCTTATGT (double strand) [Bmpr2 forward half-site]", "values": [{"measurement": "activity", "setting": "[1]", "result": 1.82, "unit": "% cutting"}]}, {"substance": "TGACAGGTAAACGAAATA (double strand) [Bmpr2 reverse half-site (complement of the printed strand)]", "values": [{"measurement": "activity", "setting": "[2]", "result": 1.82, "unit": "% cutting"}]}, {"substance": "TTGATAGTCGCCTTATGTTTTGGATACAGAATGTTGACAGGTAAACGAAATA (double strand) [Bmpr2 full TALEN target site]", "values": [{"measurement": "activity", "setting": "[3]", "result": 5.75, "unit": "% cutting"}]}, {"substance": "AAVS1 target locus", "values": [{"measurement": "activity", "setting": "[4]", "result": 8.1, "unit": "% cutting"}, {"measurement": "activity", "setting": "[5]", "result": 7.1, "unit": "% cutting"}]}]}
